Experimental data reported in patent US20190352404A1 (SUZHOU ALPHAMAB, published 2019).
Numbering of substitutions follows the chain as printed. Each block holds one binder with its values, some of them ahead of it.

Legend:
hPD-L1-Fc [1] = target: T1, hPD-L1-Fc (human, UniProt Q9NZQ7 20-239, limits assumed); test: competitive ELISA, hPD-L1-Fc coated, competitor hPD-1-hIgG-biotin 10 ug/ml; against wild-type KN035
T1 construct: also called PDL1-Fc fusion protein; human PDL1 protein; not shown: Fc part

hPD-L1-Fc [2] = target: T1, hPD-L1-Fc; test: BLI (Octet K2), hPD-L1-Fc on AHC sensor, sdAb variant in solution; against wild-type KN035

T1 sequence (Q9NZQ7 other isoform, or with tags, fused parts or gaps limits assumed): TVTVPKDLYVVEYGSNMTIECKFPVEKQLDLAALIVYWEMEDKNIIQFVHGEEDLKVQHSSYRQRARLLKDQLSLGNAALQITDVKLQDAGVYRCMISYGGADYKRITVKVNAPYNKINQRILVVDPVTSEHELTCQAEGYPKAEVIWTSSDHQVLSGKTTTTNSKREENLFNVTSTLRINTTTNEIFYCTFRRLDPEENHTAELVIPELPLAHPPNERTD

- Relative blocking activity (EC50 wt/EC50 m × 100%) (hPD-L1-Fc [1]): 91%
- KD/KD wt (hPD-L1-Fc [2]): 2.01 ratio
B1: KN035 single domain antibody mutant m3 (VHH)
VHH: QVQLQESGGGLVQPGGSLRLSCAASGKMSSRRCMAWFRQAPGKERERVADVNPNSGGSIYNQRFKGRFTISQNNAKSTVYLQMNSLKPEDTAMYYCAADSFEDPTCTLVTSSGAFQYWGQGTQVTVSS
notes: not shown: C-terminal His-tag (obtained 'by the above method')

- Relative blocking activity (EC50 wt/EC50 m × 100%) (hPD-L1-Fc [1]): 80%
- KD/KD wt (hPD-L1-Fc [2]): 1.21 ratio
B2: KN035 sdAb mutant 1 (VHH)
VHH: QVQLQESGGGSVQAGGSLRLSCAASGKMSSRRCMGWFRQAPGKERVGVAAIDSDGTTKYADSMKGRFTISKDNAKNTLDLQMNSLKPEDTAMYYCVADSFEDPTCTLVTSSGAFQYRGQGTQVTVSS
notes: Expressed in HEK293, IMAC purified; not shown: C-terminal His-tag

- Relative blocking activity (EC50 wt/EC50 m × 100%) (hPD-L1-Fc [1]): 71%
- KD/KD wt (hPD-L1-Fc [2]): 1.73 ratio
B3: KN035 sdAb mutant 2 (VHH)
VHH: B2 VHH with E44Q, A50T, K58R, A60V, M63V, V96A
notes: not shown: C-terminal His-tag
